Experimental findings from the supplement of paper PMC10567573 are described below.

B1: VAMP4 (parent)
chain: IMALVAAILLLVIIILIVMKYRT
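Note: lentivirally expressed fusions sorted by FACS into six bins by GFP to DsRed ratio, PSI derived from sequencing read proportions per bin multiplied by bin number.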

Variants of B1 are the subject of the series. In words: protein stability index of a GFP-peptide fusion (GPS, HEK-293T) (PSI 1-6); higher = more stable. Particulars: c terminus: native.
On to IMALVAAILLLVIIINIVMKYRT [L16N], for which the protein stability index worked out at 2.73.
On to IMALVAAILLLVIIIQIVMKYRT [L16Q], for which the protein stability index came to 3.13.
As to IMALVAAILLLVIIISIVMKYRT [L16S], the protein stability index came to 3.5.
On to IMALVAAILLLVIIIMIVMKYRT [L16M], for which the protein stability index came out at 2.39.
Regarding IMALVAAILLLVIIIRIVMKYRT [L16R], the protein stability index was 2.33.
For IMALVAAILLLVIIIVIVMKYRT [L16V] the value was 3.35.
As to IMALVAAILLLVIIIWIVMKYRT [L16W], the protein stability index worked out at 3.28.
Regarding IMALVAAILLLVIIIPIVMKYRT [L16P], the protein stability index was found to be 3.2.
For IMALVAAILLLVIIITIVMKYRT [L16T], the protein stability index is 3.47.
Consider IMALVAAILLLVIIIYIVMKYRT [L16Y], for which the protein stability index was 3.25.
In the case of IMALVAAILLLVIIILIVMKYKT [R22K], the protein stability index came out at 3.58.
For IMALVAAILLLVIIILIVMKYIT [R22I] the value was 3.65; for IMALVAAILLLVIIILIVMKYGT [R22G], 3.6.
With IMALVAAILLLVIIILIVMKYLT [R22L], the protein stability index amounted to 3.4.
As to IMALVAAILLLVIIILIVMKYVT [R22V], the protein stability index is 3.7.
IMALVAAILLLVIIILIVMKYPT [R22P]: the protein stability index is 3.06.
For IMALVAAILLLVIIILIVMKYCT [R22C] the value was 4.02; for IMALVAAILLLVIIILIVMKYQT [R22Q], 3.39.
In the case of IMALVAAILLLVIIILIVMKYNT [R22N], the protein stability index is 3.2.
Take IMALVAAILLLVIIILIVMKYFT [R22F]: the protein stability index is 3.85.
For IMALVAAILLLVIIILIVMKYTT [R22T] the value was 3.93.
Turning to IMALVAAILLLVIIILIVMKYET [R22E], the protein stability index stood at 3.24.
As for IMALVAAILLLVIIILIVMKYMT [R22M], the protein stability index came to 4.08.
Turning to IMALVAAILLLVIIILIVMKYHT [R22H], the protein stability index came to 3.86.
As to IMALVAAILLLVIIILIVMKYYT [R22Y], the protein stability index amounted to 3.56.
Consider IMALVAAILLLVIIILIVMKYST [R22S], for which the protein stability index came out at 3.82.
IMALVAAILLLVIIILIVMKYWT [R22W]: the protein stability index came to 4.25.
For IMALVAAILLLVIIILIVMKYDT [R22D] the value was 4.01.
On to IMALVAAILLLVIIILIVMKYAT [R22A], for which the protein stability index was found to be 3.96.
Consider IMALVAAILLLVIIILIGMKYRT [V18G], for which the protein stability index was 2.66.
Consider IMALVAAILLLVIIILIYMKYRT [V18Y], for which the protein stability index was determined as 2.97.
On to IMALVAAILLLVIIILICMKYRT [V18C], for which the protein stability index worked out at 2.93.
For the variant IMALVAAILLLVIIILILMKYRT [V18L], the protein stability index stood at 3.26.
Regarding IMALVAAILLLVIIILINMKYRT [V18N], the protein stability index stood at 2.33.
For IMALVAAILLLVIIILIRMKYRT [V18R] the value was 1.27; for IMALVAAILLLVIIILIIMKYRT [V18I], 3.54; for IMALVAAILLLVIIILIDMKYRT [V18D], 2.85.
For IMALVAAILLLVIIILITMKYRT [V18T], the protein stability index is 2.87.
With IMALVAAILLLVIIILIHMKYRT [V18H], the protein stability index is 2.38.
As to IMALVAAILLLVIIILIEMKYRT [V18E], the protein stability index is 2.91.
Consider IMALVAAILLLVIIILISMKYRT [V18S], for which the protein stability index was 2.56.
Turning to IMALVAAILLLVIIILIPMKYRT [V18P], the protein stability index is 2.72.
Take IMALVAAILLLVIIILIKMKYRT [V18K]: the protein stability index was found to be 1.68.
Consider IMALVAAILLLVIIILIFMKYRT [V18F], for which the protein stability index amounted to 3.09.
Take IMALVAAILLLVIIILIAMKYRT [V18A]: the protein stability index was 2.6.
As to IMALVAAILLLVIIILIMMKYRT [V18M], the protein stability index was found to be 3.39.
Take IMALVAAILLLVIIILIWMKYRT [V18W]: the protein stability index was found to be 3.21.
Consider IMALVAAILLLVIIILIQMKYRT [V18Q], for which the protein stability index stood at 2.04.
In the case of IMALVAAILLLVIIILIVMKART [Y21A], the protein stability index worked out at 3.11.
IMALVAAILLLVIIILIVMKGRT [Y21G]: the protein stability index was 3.22.
In the case of IMALVAAILLLVIIILIVMKWRT [Y21W], the protein stability index is 3.48.
In the case of IMALVAAILLLVIIILIVMKSRT [Y21S], the protein stability index was determined as 3.37.
For IMALVAAILLLVIIILIVMKFRT [Y21F] the value was 3.56; for IMALVAAILLLVIIILIVMKNRT [Y21N], 3.32.
In the case of IMALVAAILLLVIIILIVMKERT [Y21E], the protein stability index was found to be 2.71.
On to IMALVAAILLLVIIILIVMKPRT [Y21P], for which the protein stability index turned out to be 2.98.
Turning to IMALVAAILLLVIIILIVMKHRT [Y21H], the protein stability index amounted to 2.58.
Consider IMALVAAILLLVIIILIVMKDRT [Y21D], for which the protein stability index stood at 2.84.
For IMALVAAILLLVIIILIVMKIRT [Y21I], the protein stability index came out at 3.26.
Regarding IMALVAAILLLVIIILIVMKMRT [Y21M], the protein stability index came out at 3.42.
Regarding IMALVAAILLLVIIILIVMKRRT [Y21R], the protein stability index turned out to be 1.81.
With IMALVAAILLLVIIILIVMKTRT [Y21T], the protein stability index is 3.13.
Consider IMALVAAILLLVIIILIVMKCRT [Y21C], for which the protein stability index turned out to be 3.21.
IMALVAAILLLVIIILIVMKLRT [Y21L]: the protein stability index amounted to 3.28.
Turning to IMALVAAILLLVIIILIVMKQRT [Y21Q], the protein stability index was 2.99.
For IMALVAAILLLVIIILIVMKKRT [Y21K] the value was 1.98; for IMALVAAILLLVIIILIVMKVRT [Y21V], 2.96; for IMALVAAILLLVIIILIVMLYRT [K20L], 2.93.
For IMALVAAILLLVIIILIVMIYRT [K20I], the protein stability index is 3.75.
Turning to IMALVAAILLLVIIILIVMAYRT [K20A], the protein stability index is 3.68.
For the variant IMALVAAILLLVIIILIVMPYRT [K20P], the protein stability index was 2.62.
On to IMALVAAILLLVIIILIVMCYRT [K20C], for which the protein stability index was 3.3.
In the case of IMALVAAILLLVIIILIVMWYRT [K20W], the protein stability index is 4.14.
For the variant IMALVAAILLLVIIILIVMQYRT [K20Q], the protein stability index turned out to be 2.82.
Take IMALVAAILLLVIIILIVMFYRT [K20F]: the protein stability index was determined as 3.67.
As to IMALVAAILLLVIIILIVMMYRT [K20M], the protein stability index is 3.62.
For IMALVAAILLLVIIILIVMEYRT [K20E], the protein stability index turned out to be 3.49.
Regarding IMALVAAILLLVIIILIVMNYRT [K20N], the protein stability index is 3.25.
Take IMALVAAILLLVIIILIVMTYRT [K20T]: the protein stability index was 3.59.
As for IMALVAAILLLVIIILIVMHYRT [K20H], the protein stability index is 3.54.
Consider IMALVAAILLLVIIILIVMRYRT [K20R], for which the protein stability index worked out at 3.15.
As for IMALVAAILLLVIIILIVMDYRT [K20D], the protein stability index was determined as 3.1.
Consider IMALVAAILLLVIIILIVMVYRT [K20V], for which the protein stability index came to 4.06.
Regarding IMALVAAILLLVIIILIVMGYRT [K20G], the protein stability index is 3.37.
For IMALVAAILLLVIIILIVMSYRT [K20S] the value was 4.02; for IMALVAAILLLVIIILIVMYYRT [K20Y], 3.38.
For IMALVAAILLLVIIILIVMKYRQ [T23Q], the protein stability index is 3.1.
IMALVAAILLLVIIILIVMKYRK [T23K]: the protein stability index was 2.31.
For the variant IMALVAAILLLVIIILIVMKYRC [T23C], the protein stability index was 3.53.
With IMALVAAILLLVIIILIVMKYRE [T23E], the protein stability index worked out at 2.74.
For the variant IMALVAAILLLVIIILIVMKYRF [T23F], the protein stability index came out at 3.3.
In the case of IMALVAAILLLVIIILIVMKYRN [T23N], the protein stability index came to 3.18.
On to IMALVAAILLLVIIILIVMKYRD [T23D], for which the protein stability index was found to be 3.27.
Take IMALVAAILLLVIIILIVMKYRY [T23Y]: the protein stability index amounted to 3.37.
For the variant IMALVAAILLLVIIILIVMKYRV [T23V], the protein stability index was 3.3.
Regarding IMALVAAILLLVIIILIVMKYRM [T23M], the protein stability index was 3.39.
For IMALVAAILLLVIIILIVMKYRI [T23I] the value was 2.95.
